The values below come from patent US20260041732A1, “USE OF APELIN FOR THE TREATMENT OF LYMPHEDEMA” (INSTITUT NATIONAL DE LA SANTE ET DE LA RECHERCHE MEDICALE, priority 2022, published 2026).

For series [1], the system named is Human dermal lymphatic endothelial cells (HDLEC). Nature of the series: RT-qPCR validation of gene induction. The class given is cell-based. The settings on record: RT-qPCR on HDLEC. As for the experimental part:
Total RNA was prepared using RNeasy kit (Qiagen 74106) according to the supplier's instruction. 1 μg of RNA was retro-transcribed using high-Capacity cDNA Reverse Transcription Kit (Thermo Fisher Scientific, 4368813) containing Multi-Scribe Reverse Transcriptase according to the supplier's instruction. Quantitative real-time PCR was performed using OneGreen FAST qPCR premix (Ozyme, OZYA008) on a StepOne Real-time PCR System (Thermofisher Scientific). All samples were analysed in duplicates. Data was normalized relative to HPRT mRNA levels.
(Real-time PCR tracks product formation cycle by cycle.)

The conditions of series [2]: cited from earlier work.
For series [3], the system named is Human dermal lymphatic endothelial cells (HDLEC). Briefly: Immunoblotting of AKT, ERK and eNOS phosphorylation. The format is cell-based. The settings on record: conditioned media. As for the experimental part: Human dermal lymphatic endothelial cells (HDLEC) (single donor, juvenile foreskin, Promocell, C-12216, >95% of the cells are CD31 positive and podoplanin positive) were cultured in Endothelial Cell Media MV2 (EGM-MV2, Promocell, C-22121). NIH3T3 were cultured in Dulbecco's modified Eagle's medium (DMEM, Sigma, D6429) supplemented with 10% fetal bovine serum (FBS, Gibco, 10270-06) and 1% penicillin-streptomycin. Endothelial cells were used at passage 3-6 and human fibroblasts were used at passage 4-7. Cells were cultured at 37° C. in a 5% CO2 incubator. Culture medium was changed 3 times a week, and the cells were passaged ⅓. For collecting conditioned media, NIH3T3 were grown in 10 cm dishes, after reaching confluence, medium was removed and the cells were washed once with PBS. NIH3T3 were cultured overnight in 5 mL reduced serum medium optiMEM (Gibco), the medium was then collected and used for experiments. HDLEC were treated with 50% conditioned media/50% MV2-05% FBS.
Cells were scrapped and lysed in RIPA buffer (RIPA 2X, Biotech RB4476) supplemented with phosphatase inhibitor (PhosSTOP Easypack, Roche0490687001) and protease inhibitors (protease inhibitor cocktail, Sigma Aldrich). Lysates were centrifuged at 13500 g for 10 minutes at 4° C. Supernatants were then collected and mix with Laemmli buffer containing dithiothreitol (DTT 1 mM). Protein were resolved on 4-15% SDS-PAGE gels and transferred to nitrocellulose membrane (Trans-Blot Turbo RTA transfer kit, #1704271, Biorad). Membranes were blocked for 1h at room temperature in 5% BSA-TBS-T (TBS-0.1% Tween 20) and probed with primary antibody overnight at 4° C. Antibody used are the following: Phospho AKT: AKT-p ser473 (CS #4060S), AKT: santa cruz H136 (S8312), Phospho ERK: ERK1/2-p (MAPKp42/44) (Thr202/Thr204) (cell signalling #9106), ERK ERK1/2-(MAPKp42/44) (Thr202/Thr204) (cell signalling #9102), Phospho eNOS (cell signalling #9571S), eNOS (cell signalling #5880S), E2F8 (Abcam, AB109596), VEGFR3 (RID system AF349), Phospho-VEGFR3 (Affinity AF3676), CCBE1 (Sigma SAB1402017).
After three washes in TBS-T, membranes were probed with HRP-conjugated secondary antibodies at 1/10000 dilution. Signals were visualized with chemiluminescence detection reagent (Sigma) on a Chemidoc (Biorad) digital acquisition system.
(A western blot detects proteins with antibodies after separation by electrophoresis.)

For series [4] the test system is unchanged. Briefly: Cell migration, cell junction and cytoskeleton remodeling. The class given is cell-based.
In series [5] the test system is E2F8. Briefly: Chromatin immunoprecipitation (ChIP) with E2F8 antibody. The format is cell-based, human. The settings on record: APELIN-overexpressing HDLEC. As for the experimental part:
Human dermal lymphatic endothelial cells (HDLEC) non transduced or transduced with Apelin Lentivector, were crosslinked for 15 min using 1% formaldehyde directly in the culture medium. 0.125 M of Glycine were then added for 5 min. After two washes with cold PBS, cells were scraped and frozen at −80° C. Cells were lysed to ChIP-IT Express Magnetic Chromatin
Immunoprecipitation kit (Active Motif 53008). Optimal sonication conditions were determined previously in order to obtain DNA fragments of about 500 bp. Cells were sonicated in 350 μl final volume of Shearing buffer specific to the kit, using Diagenode Bioruptor Sonicator (7 cycles, 30 sec ON, 30 sec OFF in a water bath). DNA concentration was determined using a Nanodrop and 25 μg of chromatin were used by reaction. Experiments were then performed according to the manufacturer protocol. 4 μg of E2F8 antibody (Abcam, AB 109596) were used by ChIP reaction. 10 μl of each sample were kept as Input. Reactions were incubated over night at 4° C. A mock sample without antibody was processed similarly. Prior to qPCR, DNA was purified using the Active Motif Chromatin IP DNA purification kit (58002), and eluted in 50 μl of DNase/RNase free water. 2 μl of purified chromatin was used for qPCR. In some experiments, ChIP reactions were supplemented with 10 ng of Drosophila melanogaster chromatin (spike in chromatin, Active motif, 08221011), and 1 μg of an antibody recognizing H2Av, a Drosophila specific histone variant, (spike in antibody, active motif, 61686), as an internal control for ChIP normalization.
HDLEC were seeded in 6-well plates at 100 000 cells/well. After 24 h, cells were transduced with 1 mL of Apelin lentivector diluted in 1 mL of OptiMEM Media in the presence of proteamine sulfate at a final concentration of 5 μg/mL. The Control cells (NT) non transduced with the Apelin Lentivector were processed at the same time and following the same protocol; in this case 2 mL of OptiMEM and 5 μg/mL of proteamine sulfate were added to the cells. The media was replaced after 24 h. […]

B1: APELIN: bioactive peptide apelin, endogenous ligand of APJ; applied to HDLEC as conditioned media from LV-Apelin transduced NIH3T3 or by transduction (protein, listed as Homo sapiens)
chain: MNLRLCVQALLLLWLSLTAVCGGSLMPLPDGNGLEDGNVRHLVQPRGSRNGPGPWQGGRRKFRRQRPRLSHKGPMPF
Regarding B1, in series [1], the CCBE1 induction entry was “strongly confirmed”. For the same molecule, in series [2], the plasma apelin half-life result is listed as “less than five minutes”. The eNOS phosphorylation result in series [3] (HDLEC) is “observed”. In series [3] (24 h time course), the “AKT activation (phosphorylation)” value was “stimulated Akt phosphorylation after 1 hour” and the ERK activation result is “without major effect”. The “AKT activation (phosphorylation)” value in series [3] (24 h time course, listed as apelin) is “lesser extent than the phosphorylation induced by VEGF-C”. Besides, in series [4], the endothelial monolayer integrity result is on record as “no effect”. Moreover, in series [4] (HDLEC), the “cell junction or cytoskeleton remodeling” value is “no effect” and the cell migration result is “activation of cell migration”. Further, in series [5], the “E2F8 binding on FLT4” value is on record as “no binding”, the “E2F8 binding to CCBE1 promoter” value was “significantly increased” and the “E2F8 binding to E2F1 transcription factor promoter” value is on record as “induced”.
